Results on one substance are retold here after US7833548B2, “Bioactive agent release coating and controlled humidity method” (Surmodics, Inc., priority 2002, dated 2010).

This series is described as follows: Bioactive Agent Release Assay, dextran-TRITC from discs with polymer topcoat coated under controlled humidity. It is filed as physicochemical. To be noted: pEVA (33% vinyl acetate)/pBMA topcoat over dextran-TRITC layer, PBS, 37° C.; FIG. 2. The procedure:
Two solutions were prepared in order to provide a coating composition of the presently claimed invention in the form of a two part system. The first solution was an aqueous solution containing the bioactive agent, dextran-TRITC, at a concentration of 15 mg/ml. The second solution contained poly(ethylene-co-vinylacetate) with a vinyl acetate concentration of 33% (w/w) and poly(n-butyl methacrylate), with approximate weight average molecular weight of 337 kilodaltons. The poly(n-butyl methacrylate) and poly(ethylene-co-vinylacetate) were purified by extraction with organic solvents to remove impurities, e.g., monomer residues. The polymers of the second solution were dissolved in tetrahydrofuran at a concentration of 10 mg/ml. […]
A suitable Bioactive Agent Release Assay, as describe herein, can be used to determine the extent and rate of bioactive agent release under physiological conditions. In general it is desirable that less than 50% of the total quantity of the bioactive agent be released in the first 24 hours. It is frequently desirable for quantities of bioactive agent to be released for a duration of at least 30 days.
Except as otherwise provided herein, each coated disc was placed in an amber vial with 4 mls of PBS. […] The concentration of bioactive agent in each PBS sample was determined using UV spectroscopy. […]

On to “tetramethylrhodamine isothiocyanate-Dextran [dextran-TRITC]”, for which the “release rate of the bioactive agent, topcoat coated at 48% relative humidity versus 10% relative humidity” value was “released at a faster rate”.
